Data reported in patent publication US20120277286A1, “COMPOSITIONS AND METHODS FOR THE TREATMENT OR PREVENTION OF MITOCHONDRIAL DISEASES” (The Government of the USA, as represented by the Secretary, …, priority 2009, published 2012).
“And” between values parts separate entries of the source, which are not always exact repeats. Equal values may be shown once.

System: HeLa cells
Assay: Parkin colocalization with mitochondria scored by confocal microscopy
Format: cell-based
Conditions: for YFP-Parkin (wild type or indicated mutant) colocalization with mitochondria, % of cells: HeLa cells, 10 μM CCCP, 1 hour; for cells with YFP-Parkin co-localized with TMRE: HeLa, no CCCP, YFP-Parkin alone or with PINK1-myc 1:4
Method in brief: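 Transfected HeLa cells fixed 12–24 h post-transfection in 4% paraformaldehyde. Cells immunostained for mitochondrial markers and imaged by confocal microscopy. Parkin recruitment to mitochondria assessed by line-scan colocalization.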

For `N#CC(C#N)=NNc1cccc(Cl)c1` [CCCP, carbonyl cyanide m-chlorophenylhydrazone], which “YFP-Parkin (wild type or indicated mutant) colocalization with mitochondria, % of cells” value is on record?
The value was 78.49±2.61% and 96.0±3.5%.

B1: PINK1: exogenously expressed wild type PINK1 (V5 or myc tagged) (protein, UniProt Q9BXM7 78-581, looked up)
Serine/threonine-protein …: AARLQRQFVVRAWGCAGPCGRAVFLAFGLGLGLIEEKQAESRRAVSACQEIQAIFTQKSKPGPDPLDTRRLQGFRLEEYLIGQSIGKGCSAAVYEATMPTLPQNLEVTKSTGLLPGRGPGTSAPGEGQERAPGAPAFPLAIKMMWNISAGSSSEAILNTMSQELVPASRVALAGEYGAVTYRKSKRGPKQLAPHPNIIRVLRAFTSSVPLLPGALVDYPDVLPSRLHPEGLGHGRTLFLVMKNYPCTLRQYLCVNTPSPRLAAMMLLQLLEGVDHLVQQGIAHRDLKSDNILVELDPDGCPWLVIADFGCCLADESIGLQLPFSSWYVDRGGNGCLMAPEVSTARPGPRAVIDYSKADAWAVGAIAYEIFGLVNPFYGQGKAHLESRSYQEAQLPALPESVPPDVRQLVRALLQREASKRPSARVAANVLHLSLWGEHILALKNLKLDKMVGWLLQQSAATLLANRLTEKCCVETKMKMLFLANLECETLCQAALLLCSWRAAL
modifications: V5 or myc tag
Which “cells with YFP-Parkin co-localized with TMRE” value does the source give for B1 here?
Its value is 45.3±7.6%.

B2: YFP-Parkin: YFP-tagged Parkin E3 ligase expressed from a transfected vector (protein, UniProt O60260 1-465, looked up)
E3 ubiquitin-protein ligase …: MIVFVRFNSSHGFPVEVDSDTSIFQLKEVVAKRQGVPADQLRVIFAGKELRNDWTVQNCDLDQQSIVHIVQRPWRKGQEMNATGGDDPRNAAGGCEREPQSLTRVDLSSSVLPGDSVGLAVILHTDSRKDSPPAGSPAGRSIYNSFYVYCKGPCQRVQPGKLRVQCSTCRQATLTLTQGPSCWDDVLIPNRMSGECQSPHCPGTSAEFFFKCGAHPTSDKETSVALHLIATNSRNITCITCTDVRSPVLVFQCNSRHVICLDCFHLYCVTRLNDRQFVHDPQLGYSLPCVAGCPNSLIKELHHFRILGEEQYNRYQQYGAEECVLQMGGVLCPRPGCGAGLLPEPDQRKVTCEGGNGLGCGFAFCRECKEAYHEGECSAVFEASGTTTQAYRVDERAAEQARWEAASKETIKKTTKPCPRCHVPVEKNGGCMHMKCPQPQCRLEWCWNCGCEWNRVCMGDHWFDV
modifications: YFP fusion
notes: YFP-tagged Parkin E3 ligase expressed from a transfected vector
With B2 as the molecule, how does the “YFP-Parkin (wild type or indicated mutant) colocalization with mitochondria, % of cells” value read?
Its value is 94.7±5.8%.

And the “cells with YFP-Parkin co-localized with TMRE” value?
The value was 0±0%.
